Source: paper PMC7425896, “Polypeptides derived from α-Synuclein binding partners to prevent α-Synuclein fibrils interaction with and take-up by cells” (PLoS ONE, 2020)

Target: α-Synuclein fibrils (preformed fibrils of recombinant human wild-type αSyn) (human, UniProt P37840 1-140)
Assay: co-sedimentation; as a4 with a range of peptide concentrations (0–200 μM) and αSyn fibrils (100 μM); bound peptide by reversed phase chromatography
Settings: both partners purified

Row | Kd [µM] | Binder
1 | > 100 | GILNVSAVDKSTGKENKITITN (Hsc70 residues 484–505; source: synthetic peptide; bought: GL Biochem Ltd) [Hsc-10 (Hsc70-derived peptide)]
2 | > 100 | TKQTQTFTTYSDNQPGVLIQVYE (Hsc70 residues 422–444; source: synthetic peptide; bought: GL Biochem Ltd) [Hsc-6 (Hsc70-derived peptide)]
